According to patent publication US20120087899A1:

Key:
[1] = system: Antithrombin (AT)
[2] = target: Bone morphogenetic protein-2 (BMP-2) (Homo sapiens) (UniProt P12643); test: cell-based or functional assay
Chain of UniProt P12643 (P12643 283-396, form in doubt): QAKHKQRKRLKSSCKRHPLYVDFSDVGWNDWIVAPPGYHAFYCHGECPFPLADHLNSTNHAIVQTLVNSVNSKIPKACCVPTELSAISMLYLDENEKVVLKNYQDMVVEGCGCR

inhibition of BMP-2-induced ALP activity in C2C12 cells, noggin at 300 ng/mL, in the presence of heparin or HS5 (3 µg/mL) [2] | inhibition of BMP-2-induced ALP activity in C2C12 cells, noggin at 300 ng/mL, no GAG [2] | Substance | FXa activity (cleavage of chromogenic substrate S-2222), AT pre-incubated with HS5 [1] | FXa activity (cleavage of chromogenic substrate S-2222), AT pre-incubated with heparin [1] | FXa activity (cleavage of chromogenic substrate S-2222), AT pre-incubated with pHS or bHS [1]
 |  | Factor Xa (FXa) | HS5 did not activate AT at any doses tested | heparin (a known anticoagulant) dose dependently activated AT resulting in the inhibition of FXa | In the presence of pHS or bHS, AT significantly reduced FXa activity, but only at 3 µg/mL
20% | 70% | noggin (ligand) |  |  | 
